Earlier results as cited in publication PMC9601870.

Target: Cys32 (UniProt position 33, FWAEWCGPCKM)
Conditions: not stated (thiol ionisation implies the reduced dithiol form; inferred)

For Thioredoxin 1 (Trx) (Escherichia coli), the pKa is listed as 7.1–7.4.
